Assay results from US20260226189A1 (PHILOGEN S P A, published 2026).
Where a chain is given by its changes, count along the chain named.

Tests used:
[1] = molecular target: T1, human carcinoembryonic antigen (CEA, CEACAM5) on cells or tumor tissue (human, UniProt P06731 35-685); assay: cell-based or functional assay
T1 sequence (looked up): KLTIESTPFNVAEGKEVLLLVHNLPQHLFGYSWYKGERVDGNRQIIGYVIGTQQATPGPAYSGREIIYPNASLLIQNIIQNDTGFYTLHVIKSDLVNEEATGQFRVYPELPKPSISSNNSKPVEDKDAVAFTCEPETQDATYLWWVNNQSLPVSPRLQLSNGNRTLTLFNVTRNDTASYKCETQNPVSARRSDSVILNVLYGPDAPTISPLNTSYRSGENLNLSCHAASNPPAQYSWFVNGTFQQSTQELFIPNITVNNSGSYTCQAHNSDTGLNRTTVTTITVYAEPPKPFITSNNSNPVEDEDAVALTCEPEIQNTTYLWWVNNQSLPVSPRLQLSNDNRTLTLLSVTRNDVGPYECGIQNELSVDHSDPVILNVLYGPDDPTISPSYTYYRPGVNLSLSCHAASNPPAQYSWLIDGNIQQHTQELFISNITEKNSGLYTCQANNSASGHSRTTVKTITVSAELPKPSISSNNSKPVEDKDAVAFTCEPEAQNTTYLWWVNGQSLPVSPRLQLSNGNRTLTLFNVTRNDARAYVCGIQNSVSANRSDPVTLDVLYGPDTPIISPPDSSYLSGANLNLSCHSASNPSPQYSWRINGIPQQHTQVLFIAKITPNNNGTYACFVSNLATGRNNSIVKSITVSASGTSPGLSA

[2] = molecular target: T1, human carcinoembryonic antigen (CEA, …); assay: flow cytometry titration on CT26-CEA cells, IgG1, PE anti-human IgG Fc detection; the CT26-wt curve stays near 0
[3] = molecular target: T2, CEACAM1 transiently expressed on CHO cells (UniProt P13688 35-526, limits assumed); assay: flow cytometry contour plots (SSC against fluorescence) on CHO cells transiently expressing CEACAM1
T2 construct: whole, on cells
T2 sequence (looked up): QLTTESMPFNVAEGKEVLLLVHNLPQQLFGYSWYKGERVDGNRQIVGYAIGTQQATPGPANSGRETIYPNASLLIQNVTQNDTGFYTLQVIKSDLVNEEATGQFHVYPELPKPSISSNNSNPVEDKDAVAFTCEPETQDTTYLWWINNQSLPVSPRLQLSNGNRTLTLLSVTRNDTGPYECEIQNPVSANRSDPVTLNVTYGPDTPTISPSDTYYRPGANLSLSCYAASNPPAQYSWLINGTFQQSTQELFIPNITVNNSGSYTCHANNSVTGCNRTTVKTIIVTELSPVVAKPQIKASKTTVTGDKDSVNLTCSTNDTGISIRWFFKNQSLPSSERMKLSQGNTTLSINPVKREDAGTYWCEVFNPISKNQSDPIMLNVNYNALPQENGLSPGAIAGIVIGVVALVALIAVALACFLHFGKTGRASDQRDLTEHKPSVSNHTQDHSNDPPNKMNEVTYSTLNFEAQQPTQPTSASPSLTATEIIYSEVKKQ

[4] = molecular target: T3, CEACAM6 transiently expressed on CHO cells (UniProt P40199 35-320, limits assumed); assay: flow cytometry contour plots (SSC against fluorescence) on CHO cells transiently expressing CEACAM6
T3 construct: whole, on cells
T3 sequence (looked up): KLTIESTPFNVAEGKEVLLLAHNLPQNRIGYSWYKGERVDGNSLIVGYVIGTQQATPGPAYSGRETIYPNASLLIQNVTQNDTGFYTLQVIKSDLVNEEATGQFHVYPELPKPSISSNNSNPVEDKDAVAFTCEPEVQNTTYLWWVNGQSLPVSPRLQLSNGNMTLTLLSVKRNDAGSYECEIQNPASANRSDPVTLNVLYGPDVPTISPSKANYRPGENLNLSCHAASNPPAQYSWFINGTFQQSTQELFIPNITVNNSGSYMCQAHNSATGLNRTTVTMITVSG

[5] = molecular target: T1, human carcinoembryonic antigen (CEA, …); assay: immunofluorescence on LS174T tumor cryosections, FITC-labelled IgG1
[6] = molecular target: T4, human CEA (N-terminal domain) recombinant fragment containing a C-terminal 6xHis tag and a N-terminal BirA … (human, site specifically biotinylated using BirA (E. coli biotin ligase) at the BirA target sequence); assay: SPR (BIAcore X100), monomeric scFv over biotinylated CEA N-terminal domain on streptavidin chip
T4 construct: Expressed in CHO-S cells and immobilised on a streptavidin chip for all BIAcore runs; also called biotinylated CEA; human CEA N-terminal fragment
T4 chain: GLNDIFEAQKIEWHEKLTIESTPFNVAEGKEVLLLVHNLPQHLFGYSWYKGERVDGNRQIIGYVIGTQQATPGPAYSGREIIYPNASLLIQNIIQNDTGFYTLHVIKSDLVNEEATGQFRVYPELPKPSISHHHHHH

B1: PEA2-anti-CD3 (PUB4) bispecific antibody in scDb-scFv with Fc KIH format (bispecific antibody, human IgG4 S228P)
heavy 1: EVQLLESGGGLVQPGGSLRLSCAASGFTFSRTAMSWVRQAPGKGLEWVSAIDYDGGVTYYADSVKGRFTISRDNSKNTLYLQMNSLRAEDTAVYYCAKLTYARFDYWGQGTLVTVSSGGSGGEIVLTQSPGTLSLSPGERATLSCRASQSVSQNHLAWYQQKPGQAPRLLIYLASRRHTGIPDRFSGSGSGTDFTLTISRLEPEDFAVYYCQQSGRVPWTFGQGTKVEIKGGGGSGGGGSGGGGSEVQLLESGGGLVQPGGSLRLSCAASGFTFSRTAMSWVRQAPGKGLEWVSAIDYDGGVTYYADSVKGRFTISRDNSKNTLYLQMNSLRAEDTAVYYCAKLTYARFDYWGQGTLVTVSSGGSGGEIVLTQSPGTLSLSPGERATLSCRASQSVSQNHLAWYQQKPGQAPRLLIYLASRRHTGIPDRFSGSGSGTDFTLTISRLEPEDFAVYYCQQSGRVPWTFGQGTKVEIKGSESKYGPPCPPCPAPEFLGGPSVFLFPPKPKDTLMISRTPEVTCVVVDVSQEDPEVQFNWYVDGVEVHNAKTKPREEQFNSTYRVVSVLTVLHQDWLNGKEYKCKVSNKGLPSSIEKTISKAKGQPREPQVYTLPPCQEEMTKNQVSLWCLVKGFYPSDIAVEWESNGQPENNYKTTPPVLDSDGSFFLYSRLTVDKSRWQEGNVFSCSVMHEALHNHYTQKSLSLSLGK
heavy 2: EVQLVESGGGLVQPGGSLRLSCAASGFTFSTYAMNWVRQAPGKGLEWVGRIRSKYNNYATYYADSVKDRFTISRDDSKNSLYLQMNSLKTEDTAVYYCVRHGNFGNSYVSWFAYWGQGTLVTVSSGGGGSGGGGSGGGGSQAVVTQEPSLTVSPGGTVTLTCRSSTGAVTTSNYANWVQQKPGQAPRGLIGGTNKRAPWTPARFSGSLLGGKAALTITGAQAEDEADYYCALWYSNLWVFGGGTKLTVLGSESKYGPPCPPCPAPEFLGGPSVFLFPPKPKDTLMISRTPEVTCVVVDVSQEDPEVQFNWYVDGVEVHNAKTKPREEQFNSTYRVVSVLTVLHQDWLNGKEYKCKVSNKGLPSSIEKTISKAKGQPREPQVCTLPPSQEEMTKNQVSLSCAVKGFYPSDIAVEWESNGQPENNYKTTPPVLDSDGSFFLVSRLTVDKSRWQEGNVFSCSVMHEALHNHYTQKSLSLSLGK
EC50, target cell killing (LS174T cells with human PBMCs, 5 days) [1]: 40 PM
fold potency in target cell killing against the scFvCD3-IgGCEA KIH format [1]: 3.5 fold

B2: PEA2-anti-CD3 (PUB4) bispecific antibody in scFv-IgG4 KIH format (bispecific antibody)
heavy 1: EVQLVESGGGLVQPGGSLRLSCAASGFTFSTYAMNWVRQAPGKGLEWVGRIRSKYNNYATYYADSVKDRFTISRDDSKNSLYLQMNSLKTEDTAVYYCVRHGNFGNSYVSWFAYWGQGTLVTVSSGGGGSGGGGSGGGGSQAVVTQEPSLTVSPGGTVTLTCRSSTGAVTTSNYANWVQQKPGQAPRGLIGGTNKRAPWTPARFSGSLLGGKAALTITGAQAEDEADYYCALWYSNLWVFGGGTKLTVLGGGGSGGGGSGGGGSEVQLLESGGGLVQPGGSLRLSCAASGFTFSRTAMSWVRQAPGKGLEWVSAIDYDGGVTYYADSVKGRFTISRDNSKNTLYLQMNSLRAEDTAVYYCAKLTYARFDYWGQGTLVTVSSASTKGPSVFPLAPCSRSTSESTAALGCLVKDYFPEPVTVSWNSGALTSGVHTFPAVLQSSGLYSLSSVVTVPSSSLGTKTYTCNVDHKPSNTKVDKRVESKYGPPCPPCPAPEFLGGPSVFLFPPKPKDTLMISRTPEVTCVVVDVSQEDPEVQFNWYVDGVEVHNAKTKPREEQFNSTYRVVSVLTVLHQDWLNGKEYKCKVSNKGLPSSIEKTISKAKGQPREPQVYTLPPCQEEMTKNQVSLWCLVKGFYPSDIAVEWESNGQPENNYKTTPPVLDSDGSFFLYSRLTVDKSRWQEGNVFSCSVMHEALHNHYTQKSLSLSLGK
heavy 2: EVQLLESGGGLVQPGGSLRLSCAASGFTFSRTAMSWVRQAPGKGLEWVSAIDYDGGVTYYADSVKGRFTISRDNSKNTLYLQMNSLRAEDTAVYYCAKLTYARFDYWGQGTLVTVSSASTKGPSVFPLAPCSRSTSESTAALGCLVKDYFPEPVTVSWNSGALTSGVHTFPAVLQSSGLYSLSSVVTVPSSSLGTKTYTCNVDHKPSNTKVDKRVESKYGPPCPPCPAPEFLGGPSVFLFPPKPKDTLMISRTPEVTCVVVDVSQEDPEVQFNWYVDGVEVHNAKTKPREEQFNSTYRVVSVLTVLHQDWLNGKEYKCKVSNKGLPSSIEKTISKAKGQPREPQVCTLPPSQEEMTKNQVSLSCAVKGFYPSDIAVEWESNGQPENNYKTTPPVLDSDGSFFLVSRLTVDKSRWQEGNVFSCSVMHEALHNHYTQKSLSLSLGK
light: EIVLTQSPGTLSLSPGERATLSCRASQSVSQNHLAWYQQKPGQAPRLLIYLASRRHTGIPDRFSGSGSGTDFTLTISRLEPEDFAVYYCQQSGRVPWTFGQGTKVEIKRTVAAPSVFIFPPSDEQLKSGTASVVCLLNNFYPREAKVQWKVDNALQSGNSQESVTEQDSKDSTYSLSSTLTLSKADYEKHKVYACEVTHQGLSSPVTKSFNRGEC
EC50, target cell killing (LS174T cells with human PBMCs, 5 days) [1]: 140000 nM

B3: F7 antibody in IgG1 format (antibody, V domains shown)
VH: EVQLLESGGGLVQPGGSLRLSCAASGFTFSRTAMSWVRQAPGKGLEWVSAISGSGGSTYYADSVKGRFTISRDNSKNTLYLQMNSLRAEDTAVYYCAKLTYARFDYWGQGTLVTVSS
VL: EIVLTQSPGTLSLSPGERATLSCRASQSVSFPYLAWYQQKPGQAPRLLIYGASSRATGIPDRFSGSGSGTDFTLTISRLEPEDFAVYYCQQSGRVPWTFGQGTKVEIK
notes: also called F7 IgG
EC50 [2]: 0.77 nM

B4: PEA2 antibody as used in Example 8 (flow cytometry on transfected CHO cells) (antibody, V domains shown)
VH: B3 VH with S52D, G53Y, S54D, S57V
VL: B3 VL with F31Q, P32N, Y33H, G51L, S54R, A56H
notes: also called antibody PEA2
binding result [3]: no binding (tested: 50 nM)
binding result [4]: no binding (tested: 50 nM)

B5: PEA2 antibody in IgG1 format (antibody, V domains shown)
VH: B3 VH with S52D, G53Y, S54D, S57V
VL: EIVLTQSPGTLSLSPGERATLSCRASQSVSQNHLAWYQQKPGQAPRLLIYLASRRHTGIPDRFSGSGSGTDFTLTISRLEPEDFAVYYCQQSGRVPWTFGQGTKVEIKR
notes: also called PEA2 IgG1; PEA2 (IgG1)
EC50 [2]: 0.29 nM

B6: anti-hen egg lysozyme antibody KSF in IgG1 format (antibody, V domains shown)
VH: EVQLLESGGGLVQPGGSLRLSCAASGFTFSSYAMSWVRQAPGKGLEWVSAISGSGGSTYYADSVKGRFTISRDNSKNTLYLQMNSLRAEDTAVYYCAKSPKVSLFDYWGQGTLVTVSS
VL: SSELTQDPAVSVALGQTVRITCQGDSLRSYYASWYQQKPGQAPVLVIYGKNNRPSGIPDRFSGSSSGNTASLTITGAQAEDEADYYCNSSPLNRLAVVFGGGTKLTVLG
notes: Negative control; It was conjugated to FITC for the immunofluorescence experiments; also called KSF IgG1; KSF (IgG1)
binding result [5]: no binding (tested: 10 ug/mL)

B7: F7 antibody in scFv format (scFv)
scFv: EVQLLESGGGLVQPGGSLRLSCAASGFTFSRTAMSWVRQAPGKGLEWVSAISGSGGSTYYADSVKGRFTISRDNSKNTLYLQMNSLRAEDTAVYYCAKLTYARFDYWGQGTLVTVSSGGGGSGGGGSGGGGEIVLTQSPGTLSLSPGERATLSCRASQSVSFPYLAWYQQKPGQAPRLLIYGASSRATGIPDRFSGSGSGTDFTLTISRLEPEDFAVYYCQQSGRVPWTFGQGTKVEIK
notes: also called F7 scFv
Kd [6]: 50 nM

B8: PEA2 antibody in scFv format (scFv)
scFv: B7 scFv with S52D, G53Y, S54D, S57V, F162Q, P163N, Y164H, G182L, S185R, A187H
notes: also called PEA2 scFv
Kd [6]: 7.7 nM
